The results in this text go back to PMC9269880 (Science Advances, 2022).

One data set deals with H3K9me3 mononucleosome (UniProt P68431). The experiment in a line: native gel or EMSA.
The data set “cross-linking” deals with the molecule itself. Kind of data set: cross-linking.

In the data set with H3K9me3 mononucleosome, “Swi6^2XCD-GST (recombinant, 6XHis tag cleaved)” gave a fold increase in H3K9me3 nucleosome binding specificity against WT Swi6 of 2 fold.

B1: 3XFLAG-Swi6 (natural protein, S. pombe, UniProt P40381 1-328, looked up)
chain: MKKGGVRSYRRSSTSKRSVIDDDSEPELPSMTKEAIASHKADSGSSDNEVESDHESKSSSKKLKENAKEEEGGEEEEEDEYVVEKVLKHRMARKGGGYEYLLKWEGYDDPSDNTWSSEADCSGCKQLIEAYWNEHGGRPEPSKRKRTARPKKPEAKEPSPKSRKTDEDKHDKDSNEKIEDVNEKTIKFADKSQEEFNENGPPSGQPNGHIESDNESKSPSQKESNESEDIQIAETPSNVTPKKKPSPEVPKLPDNRELTVKQVENYDSWEDLVSSIDTIERKDDGTLEIYLTWKNGAISHHPSTITNKKCPQKMLQFYESHLTFRENE
On to B1, for which the binding result in “cross-linking” is “binds”.
